Test results taken from US10357554B2, “AMA-1 epitopes, antibodies, compositions, and methods of making and using the same” (THE UNITED STATES OF AMERICA, AS REPRESENTED BY THE …, dated 2019).
Where two headings read alike, the source gives them in different places.

T1: AMA-1 on P. falciparum 3D7 strain parasites (Plasmodium falciparum)
T1 chain: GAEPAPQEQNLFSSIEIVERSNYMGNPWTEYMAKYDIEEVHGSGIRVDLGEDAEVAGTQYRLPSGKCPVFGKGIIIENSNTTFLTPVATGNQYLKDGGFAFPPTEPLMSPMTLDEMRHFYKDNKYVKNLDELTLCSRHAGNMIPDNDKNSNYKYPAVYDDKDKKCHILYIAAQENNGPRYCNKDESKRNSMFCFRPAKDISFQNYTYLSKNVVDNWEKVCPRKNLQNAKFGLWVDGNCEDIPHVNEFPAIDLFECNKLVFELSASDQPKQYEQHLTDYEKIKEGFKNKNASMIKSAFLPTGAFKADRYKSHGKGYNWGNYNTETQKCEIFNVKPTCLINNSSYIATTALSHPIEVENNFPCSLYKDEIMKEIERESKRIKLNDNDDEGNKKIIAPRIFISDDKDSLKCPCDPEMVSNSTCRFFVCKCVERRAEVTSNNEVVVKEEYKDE


Tests used:
[1] = molecular target: AMA-1 on P. falciparum 3D7 strain parasites (Plasmodium falciparum)
[2] = molecular target: AMA-1 on P. falciparum 3D7 strain parasites (Plasmodium falciparum); remark: listed apart in the source
7 AMA-1 allelic proteins = assay: dot blot against 7 AMA-1 allelic proteins
[3] = molecular target: T1, AMA-1 on P. falciparum 3D7 strain …; assay: cell-based or functional assay
[4] = molecular target: T1, AMA-1 on P. falciparum 3D7 strain …; assay: cell-based or functional assay

| Molecule | GIA at 1 mg/ml against the 3D7 target strain: Inhibition [1] | IC30 concentration in GIA against 3D7 target parasites [2] | Strain reactivity (of 7 AMA-1 allelic proteins) (7 AMA-1 allelic proteins) | GIA at 1 mg/ml against the 3D7 target strain: Inhibition [3] | IC30 concentration in GIA against 3D7 target parasites [4] |
| --- | --- | --- | --- | --- | --- |
| rat mAb 4G2dc1 (antibody) | 22% | 1800 µg/mL | – | – | – |
| Monoclonal 1B10 (antibody, V domains shown) VH: EVQLQESGPGLVQPSQSLSITCTVSGFSLNMYGVHWVRQSPGKGLEWLGVIWSGGTTDYNAAFISRLSINRDNSKSQVFFKMNSLQTDDTAIYYCVRNNGYYVDAMDYWGQGTSVAVSS VL: DVVMTQTPLSLPVSLGDQASISCRSSQSLVHSNGNTYLHWYLQRPGQSPKLLIYKVSNRFSGVPDRFSGSGSGTDFTLKISRVEAEDLGVYFCSQSTLGPTFGGGTKLEMQR | – | – | 5 | 65% | 150 µg/mL |
| Monoclonal 4E8 (antibody, V domains shown) VH: EVQLQESGPGLVQPSQSLSITCTVSDFSLIMYGVHWVRQSPGKGLEWLGVIWSGGSTDYNAAFISRLSISKDNSKSQVFFKMNSLQADDTAIYYCARNNGYYVDAMDYWGQGTSVTVSS VL: DVVMTQTPLSLPVSLGDQASISCRSSQSLVHNNGNTYLHWYLQKPGQSPKLLIYKVSNRFFGVPDRFSGSGSGTDFTLKISRVEAEDLGVYFCSQSTHVPTFGGGTKLEIKR | – | – | 6 | 67% | 150 µg/mL |
| Monoclonal 4E11 (antibody, V domains shown) VH: EVQLQESGPGLVRPSQSLSITCTVSGFSLPLYGVHWVRQSPGKGLEWLGVIWSGGSTDYNAAFVSRLSISKDNSKSQVFFEMNSLQADDTATYYCARNNGYYVDAMDYWGQGTSVTVSS VL: DVVMTQTPLSLPVSLGDQASISCRSSQSLVHSNGNTYLHWYLQKPGQSPKLLIFKVSNRFSGVPDRFSGSGSGTDFTLQISRVEAEDLGFYFCSQSTHVPTFGGGTKLEIKR | – | – | 5 | 62% | 220 µg/mL |
| Monoclonal 1E10 (antibody, V domains shown) VH: EVQLQESGAELAKPGASVKLSCKASGYTFTNYLMHWIKQRPGQGLEWIGYINHGSGYTNYNQKFIDRATLTADKSSSTAYMQLRSLTYEDSAVYYCVHGYFDVWGTGTTVTVSS VL: QIVLTQSPTIMSASPGEKVTMTCSASSSVTYMHWYQQKPGTSPKRWIYDTSKLASGVPARFSGSGSGTSYSLTISSMEAEDAATYYCHQRSSYPTFGGGTKLEIKR | – | – | 7 | 20% | 1900 µg/mL |
